Laboratory results as given in patent publication US20140087995A1 (published 2014).
One block for each binder: values may come before it. Numbered stars: 1 amine (or outer) side, 2 acyl side, 3 side chain; on linkers, the order of the positions; unused ones are H or OH. Bridge positions count the residues as written; N and C are the ends. Side chains are listed from the residue outwards. Ends that are not written are not given here. * marks the point of attachment. C20 diacid = O=C(O)CCCCCCCCCCCCCCCCCCC(=O)*; γGlu = O=C(O)[C@H](CCC(=O)[*:2])N[*:1]; AEEA = NCCOCCOCC(=O)O

Biological target: T1, human amylin receptor (amylin 3(a) receptor: human calcitonin receptor with RAMP-3) (human, UniProt P30988 25-474; O60896 24-148)
T1 construct: whole, on cells; also called hAmylin-R; hAmylinR
T1 sequence (looked up) 1: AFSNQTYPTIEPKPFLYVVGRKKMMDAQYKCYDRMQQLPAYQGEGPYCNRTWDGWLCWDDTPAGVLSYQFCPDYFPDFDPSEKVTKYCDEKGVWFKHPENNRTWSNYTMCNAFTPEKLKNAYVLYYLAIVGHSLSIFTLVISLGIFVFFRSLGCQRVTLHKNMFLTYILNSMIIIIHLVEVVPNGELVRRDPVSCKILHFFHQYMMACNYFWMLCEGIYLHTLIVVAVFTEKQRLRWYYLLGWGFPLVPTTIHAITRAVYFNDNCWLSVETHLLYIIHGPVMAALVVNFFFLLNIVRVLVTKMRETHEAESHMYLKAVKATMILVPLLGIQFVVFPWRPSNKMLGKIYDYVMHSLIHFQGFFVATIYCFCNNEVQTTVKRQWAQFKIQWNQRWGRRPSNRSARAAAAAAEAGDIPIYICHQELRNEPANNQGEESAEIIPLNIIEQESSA
T1 sequence (looked up) 2: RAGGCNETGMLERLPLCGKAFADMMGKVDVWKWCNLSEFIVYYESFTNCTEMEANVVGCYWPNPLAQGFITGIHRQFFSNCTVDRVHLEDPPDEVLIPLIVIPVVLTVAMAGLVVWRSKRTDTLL
Experiment: SPA displacement of 125I-rat amylin, hAmylin 3(a) receptor membranes
Procedure, shortened: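 SPA beads with BHK Amylin 3(a)/CRE-luc cell membranes (35 ng/μL final) in 50 mM Hepes pH 7.4, 1 mM CaCl2, 5 mM MgCl₂, 0.1% OA, 0.02% Tween20.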

B1: N^ε1-[2-[2-[2-[[(4S)-4-carboxy-4-(19-carboxynonadecanoylamino)butanoyl]amino]ethoxy]ethoxy]acetyl]-[His14,Arg17,Pro21,Pro27]-h-amylin (peptide)
peptide: K([AEEA-γGlu-C20 diacid])CNTATCATQRLAHFLRHSSPNFGAIPSSTNVGSNTY-NH2
modifications: disulfide 2-7; N-terminus assumed
SMILES: CC[C@H](C)[C@H](NC(=O)[C@H](C)NC(=O)CNC(=O)[C@H](Cc1ccccc1)NC(=O)[C@H](CC(N)=O)NC(=O)[C@@H]1CCCN1C(=O)[C@H](CO)NC(=O)[C@H](CO)NC(=O)[C@H](Cc1c[nH]cn1)NC(=O)[C@H](CCCNC(=N)N)NC(=O)[C@H](CC(C)C)NC(=O)[C@H](Cc1ccccc1)NC(=O)[C@H](Cc1c[nH]cn1)NC(=O)[C@H](C)NC(=O)[C@H](CC(C)C)NC(=O)[C@H](CCCNC(=N)N)NC(=O)[C@H](CCC(N)=O)NC(=O)[C@@H](NC(=O)[C@H](C)NC(=O)[C@@H]1CSSC[C@H](NC(=O)[C@@H](N)CCCCNC(=O)COCCOCCNC(=O)CC[C@H](NC(=O)CCCCCCCCCCCCCCCCCCC(=O)O)C(=O)O)C(=O)N[C@@H](CC(N)=O)C(=O)N[C@@H]([C@@H](C)O)C(=O)N[C@@H](C)C(=O)N[C@@H]([C@@H](C)O)C(=O)N1)[C@@H](C)O)C(=O)N1CCC[C@H]1C(=O)N[C@@H](CO)C(=O)N[C@@H](CO)C(=O)N[C@H](C(=O)N[C@@H](CC(N)=O)C(=O)N[C@H](C(=O)NCC(=O)N[C@@H](CO)C(=O)N[C@@H](CC(N)=O)C(=O)N[C@H](C(=O)N[C@@H](Cc1ccc(O)cc1)C(N)=O)[C@@H](C)O)C(C)C)[C@@H](C)O
notes: also called 69; compound 69
- IC50: 0.133 nM

B3: N^ε1-[2-[2-[2-[[(4S)-4-carboxy-4-(19-carboxynonadecanoylamino)butanoyl]amino]ethoxy]ethoxy]acetyl]-[Ser14,Arg17,Pro21,Pro27,Pro31]-h-amylin (peptide)
peptide: K([AEEA-γGlu-C20 diacid])CNTATCATQRLASFLRHSSPNFGAIPSSTPVGSNTY-NH2
modifications: disulfide 2-7; N-terminus assumed
SMILES: CC[C@H](C)[C@H](NC(=O)[C@H](C)NC(=O)CNC(=O)[C@H](Cc1ccccc1)NC(=O)[C@H](CC(N)=O)NC(=O)[C@@H]1CCCN1C(=O)[C@H](CO)NC(=O)[C@H](CO)NC(=O)[C@H](Cc1c[nH]cn1)NC(=O)[C@H](CCCNC(=N)N)NC(=O)[C@H](CC(C)C)NC(=O)[C@H](Cc1ccccc1)NC(=O)[C@H](CO)NC(=O)[C@H](C)NC(=O)[C@H](CC(C)C)NC(=O)[C@H](CCCNC(=N)N)NC(=O)[C@H](CCC(N)=O)NC(=O)[C@@H](NC(=O)[C@H](C)NC(=O)[C@@H]1CSSC[C@H](NC(=O)[C@@H](N)CCCCNC(=O)COCCOCCNC(=O)CC[C@H](NC(=O)CCCCCCCCCCCCCCCCCCC(=O)O)C(=O)O)C(=O)N[C@@H](CC(N)=O)C(=O)N[C@@H]([C@@H](C)O)C(=O)N[C@@H](C)C(=O)N[C@@H]([C@@H](C)O)C(=O)N1)[C@@H](C)O)C(=O)N1CCC[C@H]1C(=O)N[C@@H](CO)C(=O)N[C@@H](CO)C(=O)N[C@H](C(=O)N1CCC[C@H]1C(=O)N[C@H](C(=O)NCC(=O)N[C@@H](CO)C(=O)N[C@@H](CC(N)=O)C(=O)N[C@H](C(=O)N[C@@H](Cc1ccc(O)cc1)C(N)=O)[C@@H](C)O)C(C)C)[C@@H](C)O
notes: also called 73; compound 73
- IC50: 0.104 nM

B5: N^ε1-[2-[2-[2-[[(4S)-4-carboxy-4-(19-carboxynonadecanoylamino)butanoyl]amino]ethoxy]ethoxy]acetyl]-[Lys14,Arg17,Pro21,Pro27,Pro31]-h-amylin (peptide)
peptide: K([AEEA-γGlu-C20 diacid])CNTATCATQRLAKFLRHSSPNFGAIPSSTPVGSNTY-NH2
modifications: disulfide 2-7; N-terminus assumed
SMILES: CC[C@H](C)[C@H](NC(=O)[C@H](C)NC(=O)CNC(=O)[C@H](Cc1ccccc1)NC(=O)[C@H](CC(N)=O)NC(=O)[C@@H]1CCCN1C(=O)[C@H](CO)NC(=O)[C@H](CO)NC(=O)[C@H](Cc1c[nH]cn1)NC(=O)[C@H](CCCNC(=N)N)NC(=O)[C@H](CC(C)C)NC(=O)[C@H](Cc1ccccc1)NC(=O)[C@H](CCCCN)NC(=O)[C@H](C)NC(=O)[C@H](CC(C)C)NC(=O)[C@H](CCCNC(=N)N)NC(=O)[C@H](CCC(N)=O)NC(=O)[C@@H](NC(=O)[C@H](C)NC(=O)[C@@H]1CSSC[C@H](NC(=O)[C@@H](N)CCCCNC(=O)COCCOCCNC(=O)CC[C@H](NC(=O)CCCCCCCCCCCCCCCCCCC(=O)O)C(=O)O)C(=O)N[C@@H](CC(N)=O)C(=O)N[C@@H]([C@@H](C)O)C(=O)N[C@@H](C)C(=O)N[C@@H]([C@@H](C)O)C(=O)N1)[C@@H](C)O)C(=O)N1CCC[C@H]1C(=O)N[C@@H](CO)C(=O)N[C@@H](CO)C(=O)N[C@H](C(=O)N1CCC[C@H]1C(=O)N[C@H](C(=O)NCC(=O)N[C@@H](CO)C(=O)N[C@@H](CC(N)=O)C(=O)N[C@H](C(=O)N[C@@H](Cc1ccc(O)cc1)C(N)=O)[C@@H](C)O)C(C)C)[C@@H](C)O
notes: also called 74; compound 74
- IC50: 0.791 nM

Now from value to binder:

- IC50: 0.148 nM
B2: N^ε1-[(4S)-4-carboxy-4-(19-carboxynonadecanoylamino)butanoyl]-[Ala14,Arg17,Pro21,Pro27,Pro34]-h-amylin (peptide)
peptide: K([γGlu-C20 diacid])CNTATCATQRLAAFLRHSSPNFGAIPSSTNVGPNTY-NH2
modifications: disulfide 2-7; N-terminus assumed
SMILES: CC[C@H](C)[C@H](NC(=O)[C@H](C)NC(=O)CNC(=O)[C@H](Cc1ccccc1)NC(=O)[C@H](CC(N)=O)NC(=O)[C@@H]1CCCN1C(=O)[C@H](CO)NC(=O)[C@H](CO)NC(=O)[C@H](Cc1c[nH]cn1)NC(=O)[C@H](CCCNC(=N)N)NC(=O)[C@H](CC(C)C)NC(=O)[C@H](Cc1ccccc1)NC(=O)[C@H](C)NC(=O)[C@H](C)NC(=O)[C@H](CC(C)C)NC(=O)[C@H](CCCNC(=N)N)NC(=O)[C@H](CCC(N)=O)NC(=O)[C@@H](NC(=O)[C@H](C)NC(=O)[C@@H]1CSSC[C@H](NC(=O)[C@@H](N)CCCCNC(=O)CC[C@H](NC(=O)CCCCCCCCCCCCCCCCCCC(=O)O)C(=O)O)C(=O)N[C@@H](CC(N)=O)C(=O)N[C@@H]([C@@H](C)O)C(=O)N[C@@H](C)C(=O)N[C@@H]([C@@H](C)O)C(=O)N1)[C@@H](C)O)C(=O)N1CCC[C@H]1C(=O)N[C@@H](CO)C(=O)N[C@@H](CO)C(=O)N[C@H](C(=O)N[C@@H](CC(N)=O)C(=O)N[C@H](C(=O)NCC(=O)N1CCC[C@H]1C(=O)N[C@@H](CC(N)=O)C(=O)N[C@H](C(=O)N[C@@H](Cc1ccc(O)cc1)C(N)=O)[C@@H](C)O)C(C)C)[C@@H](C)O
notes: also called 94; compound 94

- IC50: 0.176 nM
B4: N^ε1-[(4S)-4-carboxy-4-(19-carboxynonadecanoylamino)butanoyl]-[Ala14,Arg17,Pro21,Pro27,His34]-h-amylin (peptide)
peptide: K([γGlu-C20 diacid])CNTATCATQRLAAFLRHSSPNFGAIPSSTNVGHNTY-NH2
modifications: disulfide 2-7; N-terminus assumed
SMILES: CC[C@H](C)[C@H](NC(=O)[C@H](C)NC(=O)CNC(=O)[C@H](Cc1ccccc1)NC(=O)[C@H](CC(N)=O)NC(=O)[C@@H]1CCCN1C(=O)[C@H](CO)NC(=O)[C@H](CO)NC(=O)[C@H](Cc1c[nH]cn1)NC(=O)[C@H](CCCNC(=N)N)NC(=O)[C@H](CC(C)C)NC(=O)[C@H](Cc1ccccc1)NC(=O)[C@H](C)NC(=O)[C@H](C)NC(=O)[C@H](CC(C)C)NC(=O)[C@H](CCCNC(=N)N)NC(=O)[C@H](CCC(N)=O)NC(=O)[C@@H](NC(=O)[C@H](C)NC(=O)[C@@H]1CSSC[C@H](NC(=O)[C@@H](N)CCCCNC(=O)CC[C@H](NC(=O)CCCCCCCCCCCCCCCCCCC(=O)O)C(=O)O)C(=O)N[C@@H](CC(N)=O)C(=O)N[C@@H]([C@@H](C)O)C(=O)N[C@@H](C)C(=O)N[C@@H]([C@@H](C)O)C(=O)N1)[C@@H](C)O)C(=O)N1CCC[C@H]1C(=O)N[C@@H](CO)C(=O)N[C@@H](CO)C(=O)N[C@H](C(=O)N[C@@H](CC(N)=O)C(=O)N[C@H](C(=O)NCC(=O)N[C@@H](Cc1c[nH]cn1)C(=O)N[C@@H](CC(N)=O)C(=O)N[C@H](C(=O)N[C@@H](Cc1ccc(O)cc1)C(N)=O)[C@@H](C)O)C(C)C)[C@@H](C)O
notes: also called 93; compound 93

- IC50: 0.666 nM
B6: N^ε1-[2-[2-[2-[[(4S)-4-carboxy-4-(19-carboxynonadecanoylamino)butanoyl]amino]ethoxy]ethoxy]acetyl]-[Thr14,Arg17,Pro21,Pro27,Pro31]-h-amylin (peptide)
peptide: K([AEEA-γGlu-C20 diacid])CNTATCATQRLATFLRHSSPNFGAIPSSTPVGSNTY-NH2
modifications: disulfide 2-7; N-terminus assumed
SMILES: CC[C@H](C)[C@H](NC(=O)[C@H](C)NC(=O)CNC(=O)[C@H](Cc1ccccc1)NC(=O)[C@H](CC(N)=O)NC(=O)[C@@H]1CCCN1C(=O)[C@H](CO)NC(=O)[C@H](CO)NC(=O)[C@H](Cc1c[nH]cn1)NC(=O)[C@H](CCCNC(=N)N)NC(=O)[C@H](CC(C)C)NC(=O)[C@H](Cc1ccccc1)NC(=O)[C@@H](NC(=O)[C@H](C)NC(=O)[C@H](CC(C)C)NC(=O)[C@H](CCCNC(=N)N)NC(=O)[C@H](CCC(N)=O)NC(=O)[C@@H](NC(=O)[C@H](C)NC(=O)[C@@H]1CSSC[C@H](NC(=O)[C@@H](N)CCCCNC(=O)COCCOCCNC(=O)CC[C@H](NC(=O)CCCCCCCCCCCCCCCCCCC(=O)O)C(=O)O)C(=O)N[C@@H](CC(N)=O)C(=O)N[C@@H]([C@@H](C)O)C(=O)N[C@@H](C)C(=O)N[C@@H]([C@@H](C)O)C(=O)N1)[C@@H](C)O)[C@@H](C)O)C(=O)N1CCC[C@H]1C(=O)N[C@@H](CO)C(=O)N[C@@H](CO)C(=O)N[C@H](C(=O)N1CCC[C@H]1C(=O)N[C@H](C(=O)NCC(=O)N[C@@H](CO)C(=O)N[C@@H](CC(N)=O)C(=O)N[C@H](C(=O)N[C@@H](Cc1ccc(O)cc1)C(N)=O)[C@@H](C)O)C(C)C)[C@@H](C)O
notes: also called 75; compound 75
